Test results as given in PMC6726503 (2019).

B1: betaglycan O (protein)
chain: GPEPSTRCELSPINASHPVQALMESFTVLSGCASRGTTGLPREVHVLNLRSTDQGPGQRQREVTLHLNPIASVHTHHKPIVFLLNSPQPLVWHLKTERLAAGVPRLFLVSEGSVVQFPSGNFSLTAETEERNFPQENEHLLRWAQKEYGAVTSFTELKIARNIYIKVGEDQVFPPTCNIGKNFLSLNYLAEYLQPKAAEGCVLPSQPHEKEVHIIELITPSSNPYSAFQVDIIVDIRPAQEDPEVVKNLVLILKCKKSVNWVIKSFDVKGNLKVIAPNSIGFGKESERSMTMTKLVRDDIPSTQENLMKWALDNGYRPVTSYTMAPVANRFHLRLENNEEMRDEEVHTIPPELRILLDPDHPPALDNPLFPGEGSPNGGLPFPFPD
B2: betaglycan O-ZP (protein)
chain: GPEPSTRCELSPINASHPVQALMESFTVLSGCASRGTTGLPREVHVLNLRSTDQGPGQRQREVTLHLNPIASVHTHHKPIVFLLNSPQPLVWHLKTERLAAGVPRLFLVSEGSVVQFPSGNFSLTAETEERNFPQENEHLLRWAQKEYGAVTSFTELKIARNIYIKVGEDQVFPPTCNIGKNFLSLNYLAEYLQPKAAEGCVLPSQPHEKEVHIIELITPSSNPYSAFQVDIIVDIRPAQEDPEVVKNLVLILKCKKSVNWVIKSFDVKGNLKVIAPNSIGFGKESERSMTMTKLVRDDIPSTQENLMKWALDNGYRPVTSYTMAPVANRFHLRLENNEEMRDEEVHTIPPELRILLDPDHPPALDNPLFPGEGSPNGGLPFPFPDIPRRGWKEGEDRIPRPKQPIVPSVQLLPDHREPEEVQGGVDIALSVKCDHEKMVVAVDKDSFQTNGYSGMELTLLDPSCKAKMNGTHFVLESPLNGCGTRHRRSTPDGVVYYNSIVVQAPSPGDSSGWPDGYEDLESGDNGFPGDGDEGETAPLSRAGVVVFNCSLRQLRNPSGFQGQLDGNATFNMELYNTDLFLVPSPGVFSVAENEHVYVEVSVTKADQDLGFAIQTCFLSPYSNPDRMSDYTIIENICPKDDSVKFYSSKRVHFPIPHAEVDKKRFSFLFKSVFNTSLLFLHCELTLCSRKKGSLKLPRCVTPDDACTSLDATMIWTMMQNKKTFTKPLAVVLQVDYKENVPSTKDSSPIPPPPPQIFHGLDTL

Target: T1, TGF-β2 (Homo sapiens, UniProt P61812)
T1 chain: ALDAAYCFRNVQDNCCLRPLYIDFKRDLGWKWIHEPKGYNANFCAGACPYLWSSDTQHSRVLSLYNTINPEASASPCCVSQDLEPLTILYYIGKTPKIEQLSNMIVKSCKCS
Assay: SPR

Binder | Kd
B1 | 10 nM
B2 | 0.5 nM
